Measured values as given in publication PMC10397247.
One block for each binder: values may come before it.

How the values were obtained:
P8mSN = biological target: T1, P8mSN; assay: two-hybrid library CCNG1;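 also: natural log of median RNA to DNA barcode read ratio; higher means stronger binding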
T1 chain: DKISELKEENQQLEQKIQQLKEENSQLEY

P7mSN = biological target: T2, P7mSN; assay: two-hybrid library CCNG1;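 also: natural log of median RNA to DNA barcode read ratio; higher means stronger binding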
T2 chain: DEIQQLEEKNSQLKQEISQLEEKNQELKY

P9mSN = biological target: T3, P9mSN; assay: two-hybrid library CCNG1;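 also: natural log of median RNA to DNA barcode read ratio; higher means stronger binding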
T3 chain: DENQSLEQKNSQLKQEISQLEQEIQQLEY

P9A-bS = biological target: T4, P9A-bS; assay: two-hybrid library CCNG1;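 also: natural log of median RNA to DNA barcode read ratio; higher means stronger binding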
T4 chain: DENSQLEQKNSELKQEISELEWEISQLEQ

P8A-bS = biological target: T5, P8A-bS; assay: two-hybrid library CCNG1;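 also: natural log of median RNA to DNA barcode read ratio; higher means stronger binding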
T5 chain: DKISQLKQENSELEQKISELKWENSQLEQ

P8A-bH = biological target: T6, P8A-bH; assay: two-hybrid library CCNG1;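 also: natural log of median RNA to DNA barcode read ratio; higher means stronger binding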
T6 chain: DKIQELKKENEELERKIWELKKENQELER

P7A-bH = biological target: T7, P7A-bH; assay: two-hybrid library CCNG1
T7 chain: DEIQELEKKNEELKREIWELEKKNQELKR

P9A-bH = biological target: T8, P9A-bH; assay: two-hybrid library CCNG1
T8 chain: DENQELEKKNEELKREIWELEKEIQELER

O4-bN = biological target: T9, O4-bN; assay: two-hybrid library CCNG1
T9 chain: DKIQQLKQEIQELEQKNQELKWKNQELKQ

O7-bN = biological target: T10, O7-bN; assay: two-hybrid library CCNG1
T10 chain: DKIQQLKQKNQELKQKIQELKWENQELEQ

O3-bN = biological target: T11, O3-bN; assay: two-hybrid library CCNG1
T11 chain: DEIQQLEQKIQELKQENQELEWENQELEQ

O5-bN = biological target: T12, O5-bN; assay: two-hybrid library CCNG1
T12 chain: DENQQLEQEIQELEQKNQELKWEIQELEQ

O8-bN = biological target: T13, O8-bN; assay: two-hybrid library CCNG1
T13 chain: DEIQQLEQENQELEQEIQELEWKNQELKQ

O2-bN = biological target: T14, O2-bN; assay: two-hybrid library CCNG1
T14 chain: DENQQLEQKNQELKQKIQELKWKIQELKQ

O9-bN = biological target: T15, O9-bN; assay: two-hybrid library CCNG1
T15 chain: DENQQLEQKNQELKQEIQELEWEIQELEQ

O6-bN = biological target: T16, O6-bN; assay: two-hybrid library CCNG1
T16 chain: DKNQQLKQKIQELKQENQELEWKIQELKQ

O6-AA = biological target: T17, O6-AA; assay: two-hybrid library CCmax; conditions: mean of both orientations
T17 chain: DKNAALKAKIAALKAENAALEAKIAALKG

O8-AA = biological target: T18, O8-AA; assay: two-hybrid library CCmax; conditions: mean of both orientations
T18 chain: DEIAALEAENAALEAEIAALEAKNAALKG

O4-AA = biological target: T19, O4-AA; assay: two-hybrid library CCmax
T19 chain: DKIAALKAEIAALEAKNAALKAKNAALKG

O5-AA = biological target: T20, O5-AA; assay: two-hybrid library CCmax; conditions: mean of both orientations
T20 chain: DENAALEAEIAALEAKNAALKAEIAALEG

O7-AA = biological target: T21, O7-AA; assay: two-hybrid library CCmax; conditions: mean of both orientations
T21 chain: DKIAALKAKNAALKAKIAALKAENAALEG

P10-AA = biological target: T22, P10-AA; assay: two-hybrid library CCmax; conditions: mean of both orientations
T22 chain: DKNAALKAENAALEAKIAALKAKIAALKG

P9-AA = biological target: T23, P9-AA; assay: two-hybrid library CCmax; conditions: mean of both orientations
T23 chain: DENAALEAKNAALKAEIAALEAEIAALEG

4H4073-bN = biological target: T24, 4H4073-bN; assay: two-hybrid library CCNG1
T24 chain: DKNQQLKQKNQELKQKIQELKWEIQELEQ

4H3427-bN = biological target: T25, 4H3427-bN; assay: two-hybrid library CCNG1
T25 chain: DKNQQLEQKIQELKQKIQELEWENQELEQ

4H575-bN = biological target: T26, 4H575-bN; assay: two-hybrid library CCNG1
T26 chain: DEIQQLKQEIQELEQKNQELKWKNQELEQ

4H797-bN = biological target: T27, 4H797-bN; assay: two-hybrid library CCNG1
T27 chain: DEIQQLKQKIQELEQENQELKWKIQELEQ

4H2702-bN = biological target: T28, 4H2702-bN; assay: two-hybrid library CCNG1
T28 chain: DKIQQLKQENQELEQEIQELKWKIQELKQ

4H3112-bN = biological target: T29, 4H3112-bN; assay: two-hybrid library CCNG1
T29 chain: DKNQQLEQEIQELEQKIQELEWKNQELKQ

4H918-bN = biological target: T30, 4H918-bN; assay: two-hybrid library CCNG1
T30 chain: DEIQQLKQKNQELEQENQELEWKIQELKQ

4H346-bN = biological target: T31, 4H346-bN; assay: two-hybrid library CCNG1
T31 chain: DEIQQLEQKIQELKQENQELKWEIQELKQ

4H953-bN = biological target: T32, 4H953-bN; assay: two-hybrid library CCNG1
T32 chain: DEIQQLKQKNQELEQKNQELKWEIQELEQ

4H968-bN = biological target: T33, 4H968-bN; assay: two-hybrid library CCNG1
T33 chain: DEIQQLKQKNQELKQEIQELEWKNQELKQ

4H683-bN = biological target: T34, 4H683-bN; assay: two-hybrid library CCNG1
T34 chain: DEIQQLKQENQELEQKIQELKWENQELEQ

4H855-bN = biological target: T35, 4H855-bN; assay: two-hybrid library CCNG1
T35 chain: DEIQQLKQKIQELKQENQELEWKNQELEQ

4H754-bN = biological target: T36, 4H754-bN; assay: two-hybrid library CCNG1
T36 chain: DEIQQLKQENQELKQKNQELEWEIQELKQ

4H3010-bN = biological target: T37, 4H3010-bN; assay: two-hybrid library CCNG1
T37 chain: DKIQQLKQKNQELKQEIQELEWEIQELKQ

4H3926-bN = biological target: T38, 4H3926-bN; assay: two-hybrid library CCNG1
T38 chain: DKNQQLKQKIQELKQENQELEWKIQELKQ

4H457-bN = biological target: T39, 4H457-bN; assay: two-hybrid library CCNG1
T39 chain: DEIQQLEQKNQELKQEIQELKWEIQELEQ

4H780-bN = biological target: T40, 4H780-bN; assay: two-hybrid library CCNG1
T40 chain: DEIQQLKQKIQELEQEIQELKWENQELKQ

P9bHq = biological target: T41, P9bHq; assay: two-hybrid library CCNG1
T41 chain: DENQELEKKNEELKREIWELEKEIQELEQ

P8bHq = biological target: T42, P8bHq; assay: two-hybrid library CCNG1
T42 chain: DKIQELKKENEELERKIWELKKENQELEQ

P7bHq = biological target: T43, P7bHq; assay: two-hybrid library CCNG1
T43 chain: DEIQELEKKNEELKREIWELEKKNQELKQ

4H967-bN = biological target: T44, 4H967-bN; assay: two-hybrid library CCNG1
T44 chain: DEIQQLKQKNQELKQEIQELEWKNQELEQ

4H568-bN = biological target: T45, 4H568-bN; assay: two-hybrid library CCNG1
T45 chain: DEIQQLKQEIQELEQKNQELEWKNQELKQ

4H3782-bN = biological target: T46, 4H3782-bN; assay: two-hybrid library CCNG1
T46 chain: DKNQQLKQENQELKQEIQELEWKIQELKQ

4H607-bN = biological target: T47, 4H607-bN; assay: two-hybrid library CCNG1
T47 chain: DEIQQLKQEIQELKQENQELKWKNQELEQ

4H72-bN = biological target: T48, 4H72-bN; assay: two-hybrid library CCNG1
T48 chain: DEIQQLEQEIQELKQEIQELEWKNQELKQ

4H462-bN = biological target: T49, 4H462-bN; assay: two-hybrid library CCNG1
T49 chain: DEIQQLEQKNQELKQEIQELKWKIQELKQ

4H687-bN = biological target: T50, 4H687-bN; assay: two-hybrid library CCNG1
T50 chain: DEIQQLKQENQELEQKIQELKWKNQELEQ

4H4001-bN = biological target: T51, 4H4001-bN; assay: two-hybrid library CCNG1
T51 chain: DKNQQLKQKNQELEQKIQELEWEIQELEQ

4H331-bN = biological target: T52, 4H331-bN; assay: two-hybrid library CCNG1
T52 chain: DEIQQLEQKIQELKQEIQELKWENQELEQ

4H3843-bN = biological target: T53, 4H3843-bN; assay: two-hybrid library CCNG1
T53 chain: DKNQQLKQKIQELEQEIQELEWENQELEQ

4H883-bN = biological target: T54, 4H883-bN; assay: two-hybrid library CCNG1
T54 chain: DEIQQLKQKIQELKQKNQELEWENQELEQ

4H3606-bN = biological target: T55, 4H3606-bN; assay: two-hybrid library CCNG1
T55 chain: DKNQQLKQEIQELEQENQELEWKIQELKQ

4H3189-bN = biological target: T56, 4H3189-bN; assay: two-hybrid library CCNG1
T56 chain: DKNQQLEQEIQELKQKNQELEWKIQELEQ

4H370-bN = biological target: T57, 4H370-bN; assay: two-hybrid library CCNG1
T57 chain: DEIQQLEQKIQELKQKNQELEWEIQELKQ

4H2697-bN = biological target: T58, 4H2697-bN; assay: two-hybrid library CCNG1
T58 chain: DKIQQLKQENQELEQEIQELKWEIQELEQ

O16-bN = biological target: T59, O16-bN; assay: two-hybrid library CCNG1
T59 chain: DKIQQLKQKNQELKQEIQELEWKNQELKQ

- interaction score (P8mSN): 0.927
- interaction score (P7mSN): -0.219
- interaction score (P9mSN): -0.424
Binder: DEIQQLEEKNSQLKQEISQLEEKNQELKY [P7mSN]

- interaction score (P9A-bS): -0.26
- interaction score (P8A-bS): -0.428
Binder: DKISQLKQENSELEQKISELKWENSQLEQ [P8A-bS]

- interaction score (P8A-bH): 0.924
- interaction score (P7A-bH): 1.35
- interaction score (P9A-bH): 0.983
Binder: DKNQELKKEIEELERENWELEKKIQELKR [P6A-bH]

- interaction score (O4-bN): -1.97
- interaction score (O7-bN): -0.634
- interaction score (O3-bN): -1.2
- interaction score (O5-bN): -0.76
- interaction score (O8-bN): 0.817
- interaction score (O2-bN): -0.646
- interaction score (O9-bN): 0.719
- interaction score (O6-bN): -1.5
Binder: DENQQLEQKNQELKQKIQELKWKIQELKQ [O2-bN]

- interaction score (O6-AA): -0.0762
- interaction score (O8-AA): -0.637
- interaction score (O4-AA): -1.05
- interaction score (O5-AA): -0.641
- interaction score (O7-AA): -1.28
- interaction score (P10-AA): -0.869
- interaction score (P9-AA): -1.16
Binder: DKIAALKAEIAALEAKNAALKAKNAALKG [O4-AA]

- interaction score (4H4073-bN): 2.14
- interaction score (4H3427-bN): -0.588
- interaction score (4H575-bN): -0.212
- interaction score (4H797-bN): 0.189
- interaction score (4H2702-bN): 1.44
- interaction score (4H3112-bN): -0.298
- interaction score (4H918-bN): -0.128
- interaction score (4H346-bN): -0.668
- interaction score (4H953-bN): -0.0124
- interaction score (4H968-bN): 1.31
- interaction score (4H683-bN): 0.0387
- interaction score (4H855-bN): -1.49
- interaction score (4H754-bN): -1.18
- interaction score (4H3010-bN): 2.05
- interaction score (4H3926-bN): 0.223
- interaction score (4H457-bN): 1.25
- interaction score (4H780-bN): -0.44
Binder: DKIQQLKQENQELEQEIQELKWKIQELKQ [4H2702-bN]

- interaction score (O4-bN): 2.41
- interaction score (O7-bN): -1.23
- interaction score (O3-bN): -0.142
- interaction score (O5-bN): -0.619
- interaction score (O8-bN): -0.285
- interaction score (O9-bN): -0.842
- interaction score (O6-bN): -0.337
Binder: DEIQQLEQKIQELKQENQELEWENQELEQ [O3-bN]

- interaction score (P8A-bH): 1.64
- interaction score (P7A-bH): -0.0377
- interaction score (P9A-bH): -0.442
Binder: DEIQELEKKNEELKREIWELEKKNQELKR [P7A-bH]

- interaction score (P9bHq): 0.211
- interaction score (P8bHq): 2.08
- interaction score (P7bHq): -1.98
Binder: DEIQELEKKNEELKREIWELEKKNQELKQ [P7bHq]

- interaction score (4H967-bN): -1.15
- interaction score (4H797-bN): -0.83
- interaction score (4H568-bN): -1.07
- interaction score (4H3782-bN): -1.03
- interaction score (4H607-bN): -1.63
- interaction score (4H72-bN): -1.14
- interaction score (4H918-bN): -1.97
- interaction score (4H462-bN): 1.31
- interaction score (4H687-bN): -1.12
- interaction score (4H953-bN): -0.808
- interaction score (4H4001-bN): -0.819
- interaction score (4H331-bN): -0.941
- interaction score (4H3843-bN): -0.916
- interaction score (4H883-bN): -0.654
- interaction score (4H3606-bN): -0.924
- interaction score (4H3189-bN): -1.43
- interaction score (4H370-bN): -0.695
- interaction score (4H2697-bN): -0.736
Binder: DKIQQLKQENQELEQEIQELKWEIQELEQ [4H2697-bN]

- interaction score (O4-bN): -0.0984
- interaction score (O7-bN): -0.333
- interaction score (O3-bN): -0.113
- interaction score (O16-bN): 0.145
- interaction score (O5-bN): -2.84
- interaction score (O8-bN): 0.95
- interaction score (O2-bN): -0.944
- interaction score (O9-bN): -0.976
- interaction score (O6-bN): 0.821
Binder: DKIQQLKQKNQELKQEIQELEWKNQELKQ [O16-bN]
